Laboratory results as given in patent US20260209325A1 (SCHOLAR ROCK, published 2026).
Values belong to the binder of their own block, whether it stands above or below them.

Key:
human pro-myostatin [1] = biological target: T1, human pro-myostatin (human, UniProt O14793 24-375, biotinylated (in the SPR assay)); experiment: cell-based or functional assay
[2] = biological target: recombinant human latent myostatin (human, UniProt O14793 24-375, biotinylated (in the Octet pH assay only)); experiment: cell-based or functional assay
human pro-myostatin [3] = biological target: T1, human pro-myostatin; experiment: SPR Biacore 8K, biotin-antigen captured
murine pro-myostatin [4] = biological target: T2, murine pro-myostatin (mouse, UniProt O08689 25-376, biotinylated (in the SPR assay)); experiment: SPR Biacore 8K, biotin-antigen captured
T2 construct: also called proGDF8 (mouse); mouse pro-myostatin

cyno pro-myostatin [5] = biological target: T3, cyno pro-myostatin (cynomolgus monkey, Biotinylated for capture in the SPR assay (site not stated). The native form is a disulfide-linked homodimer, partly furin-cleaved; one chain is given.); experiment: SPR Biacore 8K, biotin-antigen captured
T3 construct: also called proGDF8 (cynomolgus); cynomolgus monkey pro-myostatin

human pro-myostatin [6] = biological target: T1, human pro-myostatin; experiment: plate binding assay, OD 450 nm, antibody titrated 0.0003 to 100 nM, panel 'Hu-Pro-GDF-8 Plate 2' (method not described in the text)
murine pro-myostatin [7] = biological target: T2, murine pro-myostatin; experiment: plate binding assay, OD 450 nm, antibody titrated 0.0003 to 100 nM, panel 'Mu-Pro-GDF-8 Plate 2' (method not described in the text)
cyno pro-myostatin [8] = biological target: T3, cyno pro-myostatin; experiment: plate binding assay, OD 450 nm, antibody titrated 0.0003 to 100 nM, panel 'Cyno-Pro-GDF-8 Plate 2' (method not described in the text)
cyno pro-myostatin [9] = biological target: T3, cyno pro-myostatin; experiment: plate binding assay, absorbance at 450 nm, antibody titrated 100 to about 0.002 nM, panel 'Cyno Pure Pro-GDF-8' (method not described in the text)
human pro-myostatin [10] = biological target: T1, human pro-myostatin; experiment: plate binding assay, absorbance at 450 nm, antibody titrated 100 to about 0.002 nM, panel 'Human Pure Pro-GDF-8' (method not described in the text)
murine pro-myostatin [11] = biological target: T2, murine pro-myostatin; experiment: plate binding assay, absorbance at 450 nm, antibody titrated 100 to about 0.002 nM, panel 'Murine Pure Pro-GDF-8' (method not described in the text)
human GDF-11 = human GDF-11 (human, UniProt O95390 299-407, limits assumed); experiment: plate binding assay, OD 450 nm, one antibody concentration that is not given, on Hu-GDF-11 (method not described in the text)
mouse GDF-11 = mouse GDF-11 (mouse, UniProt Q9Z1W4 297-405, limits assumed); experiment: plate binding assay, OD 450 nm, one antibody concentration that is not given, on Mu-GDF-11 (method not described in the text)
human pro-myostatin [12] = biological target: T1, human pro-myostatin; experiment: plate binding assay, OD 450 nm, antibody titrated 0.0003 to 100 nM, panel 'Hu-Pro-GDF-8 Plate 1' (method not described in the text)
murine pro-myostatin [13] = biological target: T2, murine pro-myostatin; experiment: plate binding assay, OD 450 nm, antibody titrated 0.0003 to 100 nM, panel 'Mu-Pro-GDF-8 Plate 1' (method not described in the text)

mouse GDF-11, sequence (Q9Z1W4 297-405 limits assumed): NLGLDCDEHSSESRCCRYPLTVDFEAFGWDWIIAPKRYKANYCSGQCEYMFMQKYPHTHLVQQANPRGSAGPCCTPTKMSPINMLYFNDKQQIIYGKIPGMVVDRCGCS
human GDF-11, sequence (O95390 299-407 limits assumed): as the sequence (Q9Z1W4 297-405 limits assumed) above

- IC50 (nM) Pro + Furin (human pro-myostatin [1]): 0.143 nM
- IC50 (nM) Latent + mTLL2 [2]: 0.386 nM
- Kd (human pro-myostatin [3]): 0.101 nM
- koff (human pro-myostatin [3]): 0.000318 s⁻¹
- kon (human pro-myostatin [3]): 3.16e+06 M⁻¹ s⁻¹
- Kd (murine pro-myostatin [4]): 0.187 nM
- koff (murine pro-myostatin [4]): 0.000608 s⁻¹
- kon (murine pro-myostatin [4]): 3.24e+06 M⁻¹ s⁻¹
- Kd (cyno pro-myostatin [5]): 0.106 nM
- koff (cyno pro-myostatin [5]): 0.000365 s⁻¹
- kon (cyno pro-myostatin [5]): 3.45e+06 M⁻¹ s⁻¹
- EC50 (read off the curve) (human pro-myostatin [6]): ~0.2 nM
- EC50 (read off the curve) (murine pro-myostatin [7]): ~0.2 nM
- EC50 (read off the curve) (cyno pro-myostatin [8]): ~0.2 nM
B1: Ab121 (antibody, human IgG4 S228P, kappa, V domains shown)
VH: QVTLRESGPALVKPTQTLTLTCTVSGFSFSTSGMVVNWIRQPPGKALEWLAMIDWDADNIVYNSALKSRLTISKDTSKNQVVLTMTNMDPVDTATYYCAKDTGSGWFDAFDIWGQGTMVTVSS
VL: DIVMTQSPDSLAVSLGERATINCKSSQSVLYSSTNQNFLAWYQQKPGQPPKLLIYQASTLQNGVPDRFSGSGSGTDFTLTISSLQAEDVAVYYCQQYLTTPYTFGGGTKVEIKR

- IC50 (nM) Pro + Furin (human pro-myostatin [1]): 0.363 nM
- IC50 (nM) Latent + mTLL2 [2]: 0.22 nM
- Kd (human pro-myostatin [3]): 0.1 nM
- koff (human pro-myostatin [3]): 0.000381 s⁻¹
- kon (human pro-myostatin [3]): 3.82e+06 M⁻¹ s⁻¹
- Kd (murine pro-myostatin [4]): 0.145 nM
- koff (murine pro-myostatin [4]): 0.000518 s⁻¹
- kon (murine pro-myostatin [4]): 3.58e+06 M⁻¹ s⁻¹
- Kd (cyno pro-myostatin [5]): 0.076 nM
- koff (cyno pro-myostatin [5]): 0.000322 s⁻¹
- kon (cyno pro-myostatin [5]): 4.21e+06 M⁻¹ s⁻¹
- EC50 (read off the curve) (cyno pro-myostatin [9]): ~0.7 nM
- EC50 (read off the curve) (human pro-myostatin [10]): ~0.5 nM
- EC50 (read off the curve) (murine pro-myostatin [11]): ~0.6 nM
B2: Ab104 (antibody, human IgG4 S228P, kappa, V domains shown)
VH: EVQLVESGGGLVQPGGSLRLSCAASGSAFSSYGMSWVRQAPGKGLELVASINSNGGSTYYPDSVKGRFTISRDNAKNSLYLQMNSLRAEDTAVYYCARDLLVKFLSWSHYYGMDVWGQGTTVTVSS
VL: DIVMTQSPLSLPVTPGEPASISCRSSQSLLHSSGHNFLHWYLQKPGQSPQLLIYEVSNRVSGVPDRFSGSGSGTDFTLKISRVEAEDVGVYYCMQQTQYPPTFGGGTKVEIKR

- binding result (human GDF-11): no binding
- binding result (mouse GDF-11): no binding
- EC50 (read off the curve) (human pro-myostatin [12]): ~0.2 nM
- EC50 (read off the curve) (murine pro-myostatin [13]): ~0.4 nM
B3: Ab113 (antibody, human IgG4 S228P, kappa, V domains shown)
VH: QVQLVQSGAEVKKPGASVKVSCKVSGYLLTELSIHWVRQAPGKGLEWMGGIIPSFGTAIYAQKFQGRVTMTEDTSTDTAYMELSSLKSEDTAVYYCAISYSGFDLLPLDKWGQGTLVTVSS
VL: DIQMTQSPSSVSASVGDRVTITCRASQHISTWLAWYQQKPGKAPKLLIYYASSLQGGVPSRFSGSGSGTDFTLTISSLQPEDFANYYCLQTYTYPRTFGGGTKVEIKR
